{"source": "patent US20250186535A1", "about": "“OPHTALMIC COMPOSITIONS AND METHODS OF USING SAME” (Tarsier Pharma Ltd., priority 2021, published 2025)", "test": "Solubility of drug substance in water", "assay_type": "physicochemical", "method": "Drug Substance [TRS]: is a trifluoroacetate [TFA] salt of phosphorylcholine-tuftsin conjugate represented by Formula 1, SEQ ID NO: 2 (as shown herein). Molecular formula: C43H68N13013P, Appearance: Yellow to orange solid. Solubility: >40 mg/ml in water.", "note": "*1 amine or outer side, *2 acyl side, *3 side chain or, on linkers, in order; H or OH if unused. Where a SMILES comes first, the peptide text is derived from it. [ ]: non-standard residue; d: D form. X1 = C[N+](C)(C)CCOP(=O)([O-])Oc1ccc(/N=N/c2cc(C[C@H](N[*:1])C(=O)[*:2])ccc2O)cc1"}
{"smiles": "C[C@@H](O)[C@H](N)C(=O)N[C@@H](CCCCN)C(=O)N1CCC[C@H]1C(=O)N[C@@H](CCCNC(=N)N)C(=O)NCC(=O)N[C@@H](Cc1ccc(O)c(/N=N/c2ccc(OP(=O)([O-])OCC[N+](C)(C)C)cc2)c1)C(=O)O", "note": "[TRS, phosphorylcholine-tuftsin conjugate] (H-TKPRG[X1]-OH)", "values": [{"measurement": "solubility", "value": "> 40", "unit": "mg/mL"}]}
